{"source": "paper PMC8473176", "binders": {"B1": {"name": "his-AtHEN1 (recombinant full-length Arabidopsis HEN1) (enzyme)", "chain": "MAGGGKHTPTPKAIIHQKFGAKASYTVEEVHDSSQSGCLGLAIPQKGPCLYRCHLQLPEFSVVSNVFKKKKDSEQSAAELALDKLGIRPQNDDLTVDEARDEIVGRIKYIFSDEFLSAEHPLGAHLRAALRRDGERCGSVPVSVIATVDAKINSRCKIINPSVESDPFLAISYVMKAAAKLADYIVASPHGLRRKNAYPSEIVEALATHVSDSLHSREVAAVYIPCIDEEVVELDTLYISSNRHYLDSIAERLGLKDGNQVMISRMFGKASCGSECRLYSEIPKKYLDNSSDASGTSNEDSSHIVKSRNARASYICGQDIHGDAILASVGYRWKSDDLDYDDVTVNSFYRICCGMSPNGIYKISRQAVIAAQLPFAFTTKSNWRGPLPREILGLFCHQHRLAEPILSSSTAPVKSLSDIFRSHKKLKVSGVDDANENLSRQKEDTPGLGHGFRCEVKIFTKSQDLVLECSPRKFYEKENDAIQNASLKALLWFSKFFADLDVDGEQSCDTDDDQDTKSSSPNVFAAPPILQKEHSSESKNTNVLSAEKRVQSITNGSVVSICYSLSLAVDPEYSSDGESPREDNESNEEMESEYSANCESSVELIESNEEIEFEVGTGSMNPHIESEVTQMTVGEYASFRMTPPDAAEALILAVGSDTVRIRSLLSERPCLNYNILLLGVKGPSEERMEAAFFKPPLSKQRVEYALKHIRESSASTLVDFGCGSGSLLDSLLDYPTSLQTIIGVDISPKGLARAAKMLHVKLNKEACNVKSATLYDGSILEFDSRLHDVDIGTCLEVIEHMEEDQACEFGEKVLSLFHPKLLIVSTPNYEFNTILQRSTPETQEENNSEPQLPKFRNHDHKFEWTREQFNQWASKLGKRHNYSVEFSGVGGSGEVEPGFASQIAIFRREASSVENVAESSMQPYKVIWEWKKEDVEKKKTDL"}}, "molecular_target": "GST-HC-Pro^K (HC-Pro of turnip mosaic virus, FRNK motif mutated to FKNK) (turnip mosaic virus (TuMV))", "assay": "pull-down; 2 μg bait (GST-HC-Pro^R or GST-HC-Pro^K) and 2 μg prey (his-AtHEN1) in 50 mM Tris-HCl pH 7.5, 100 mM NaCl, 0.2% glycerol, 0.6% Triton X-100, 0.5 mM β-mercaptoethanol; 25 °C, 2 h; Glutathione Sepharose 4B; blot with α-His or α-GST"}
{"binder": "B1", "values": [{"measurement": "fold pull-down signal", "value": "0.2 to 0.3", "unit": "fold"}]}
